Data taken from patent US20260139049A1.
Read-outs that look alike come from different tables or passages of the source.

Columns and labels:
human CLDN6 (human) [1] = biological target: human CLDN6 (human) (UniProt P56747); assay: FACS on PA-1 tumour cells; target on the cells taken as CLDN6
human CLDN6 (human) [2] = biological target: human CLDN6 (human) (UniProt P56747); assay: FACS on 293T-CLDN6 cells, 10 µg/mL
human CLDN6 (human) [3] = biological target: human CLDN6 (human) (UniProt P56747); assay: FACS on HEK293T-CLDN6 cells
human CLDN6 (human) [4] = biological target: human CLDN6 (human) (UniProt P56747); assay: FACS on HepG2 tumour cells, 5 µg/mL; target on the cells taken as CLDN6
human CLDN6 (human) [5] = biological target: human CLDN6 (human) (UniProt P56747); assay: FACS on 293T-CLDN6 cells, 10 µg/mL; remark: listed apart in the source
human CLDN6 (human) [6] = biological target: human CLDN6 (human) (UniProt P56747); assay: FACS on 293T-CLDN6 cells, 10 µg/mL; remark: listed apart in the source
mouse CLDN6 (mouse) [7] = biological target: mouse CLDN6 (mouse) (UniProt Q9Z262); assay: FACS on CHO-K1-Mouse CLDN6 cells
mouse CLDN6 (mouse), sequence (Q9Z262 whole entry): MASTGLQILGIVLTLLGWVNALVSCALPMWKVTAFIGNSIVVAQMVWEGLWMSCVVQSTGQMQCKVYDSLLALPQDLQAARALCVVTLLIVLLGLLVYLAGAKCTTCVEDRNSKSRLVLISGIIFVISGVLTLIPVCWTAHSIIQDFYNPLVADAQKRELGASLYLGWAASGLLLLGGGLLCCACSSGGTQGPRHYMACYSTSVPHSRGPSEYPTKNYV

human CLDN9 (human) [8] = biological target: human CLDN9 (human) (UniProt O95484); assay: FACS on 293T-CLDN9 cells, 10 µg/mL
human CLDN9 (human), sequence (O95484 whole entry): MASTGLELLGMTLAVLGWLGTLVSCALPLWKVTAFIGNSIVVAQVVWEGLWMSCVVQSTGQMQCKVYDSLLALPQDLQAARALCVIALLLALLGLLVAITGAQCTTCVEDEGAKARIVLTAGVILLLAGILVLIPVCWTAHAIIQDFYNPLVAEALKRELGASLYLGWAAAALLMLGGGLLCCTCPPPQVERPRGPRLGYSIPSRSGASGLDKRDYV

[9] = biological target: monkey CLDN6 (Cyno CLDN6) (monkey (Cyno)); assay: FACS on CHO-K1-Cyno CLDN6 cells
human CLDN6 (human) [10] = biological target: human CLDN6 (human) (UniProt P56747); assay: FACS on HepG2 tumour cells; target on the cells taken as CLDN6
human CLDN6 (human) [11] = biological target: human CLDN6 (human) (UniProt P56747); assay: ratio of FACS Geom.Mean on 293T-CLDN6 over 293T-CLDN9, 10 µg/mL
human CLDN6 (human) [12] = biological target: human CLDN6 (human) (UniProt P56747); assay: FACS on PA-1 tumour cells; target on the cells taken as CLDN6; remark: listed apart in the source
human CLDN9 (human) [13] = biological target: human CLDN9 (human) (UniProt O95484); assay: FACS on 293T-CLDN9 cells, 10 µg/mL; remark: listed apart in the source
human CLDN4 (human) = human CLDN4 (human) (UniProt O14493); assay: FACS on 293T-CLDN4 cells, 10 µg/mL
human CLDN3 (human) = human CLDN3 (human) (UniProt O15551); assay: FACS on 293T-CLDN3 cells, 10 µg/mL
human CLDN3 (human), sequence (O15551 whole entry): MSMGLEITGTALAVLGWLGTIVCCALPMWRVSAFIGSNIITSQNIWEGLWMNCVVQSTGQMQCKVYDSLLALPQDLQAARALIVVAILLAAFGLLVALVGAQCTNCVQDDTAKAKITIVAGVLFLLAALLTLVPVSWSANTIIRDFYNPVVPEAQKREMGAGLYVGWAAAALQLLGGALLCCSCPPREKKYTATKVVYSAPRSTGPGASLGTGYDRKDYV

human CLDN6 (human) [14] = biological target: human CLDN6 (human) (UniProt P56747); assay: FACS on HepG2 tumour cells; target on the cells taken as CLDN6; remark: listed apart in the source
human CLDN9 (human) [15] = biological target: human CLDN9 (human) (UniProt O95484); assay: FACS on 293T-CLDN9 cells, 10 µg/mL; remark: listed apart in the source
mouse CLDN6 (mouse) [16] = biological target: mouse CLDN6 (mouse) (UniProt Q9Z262); assay: FACS
mouse CLDN6 (mouse) [17] = biological target: mouse CLDN6 (mouse) (UniProt Q9Z262); assay: FACS; FIG. 20

human CLDN6 (human), sequence (P56747 whole entry): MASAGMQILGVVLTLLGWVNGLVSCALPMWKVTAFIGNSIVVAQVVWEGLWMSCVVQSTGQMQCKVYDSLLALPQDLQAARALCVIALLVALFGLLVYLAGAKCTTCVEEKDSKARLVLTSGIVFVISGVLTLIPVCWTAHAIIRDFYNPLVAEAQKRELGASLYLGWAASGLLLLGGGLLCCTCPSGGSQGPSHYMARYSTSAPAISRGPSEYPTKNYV

Row | EC50 (human CLDN6 (human) [1]) | Geom.Mean (human CLDN6 (human) [2]) | EC50 (human CLDN6 (human) [3]) | FACS signal (human CLDN6 (human) [3]) | Geom.Mean (human CLDN6 (human) [4]) | Geom.Mean (human CLDN6 (human) [5]) | Geom.Mean (human CLDN6 (human) [6]) | EC50 (mouse CLDN6 (mouse) [7]) | Geom.Mean (human CLDN9 (human) [8]) | EC50 [9] | EC50 (human CLDN6 (human) [10]) | CLDN6/CLDN9 ratio (human CLDN6 (human) [11]) | EC50 (human CLDN6 (human) [12]) | Geom.Mean (human CLDN9 (human) [13]) | Geom.Mean (human CLDN4 (human)) | Geom.Mean (human CLDN3 (human)) | EC50 (human CLDN6 (human) [14]) | Geom.Mean (human CLDN9 (human) [15]) | EC50 (mouse CLDN6 (mouse) [16]) | EC50 (mouse CLDN6 (mouse) [17]) | Substance
1 | 138 mg/mL | 196 | 323 µg/mL | 136 | 57.6 | 222 | 163 | 78.8 µg/mL | 295 | 132 µg/mL | 63.7 mg/mL | 1.6 | 194 µg/mL | 79.4 | 158 | 168 | 77.5 µg/mL | 119 | – | – | Human IgG (antibody)
2 | – | – | – | – | – | – | – | – | – | – | – | – | – | – | – | – | – | – | 0.332 µg/mL | 0.332 µg/mL | IMAB027
